Results on 1 substance are retold here after paper PMC10111636.

Conditions in all cases: glycan lost; control: Flag-LARP1-WT
Data set [1] in a line: cycloheximide chase, Western blot. (In general: Immunoblotting shows a protein as a band on a membrane.)
A short description of data set [2]: cycloheximide chase, sh-circCLNS1A#1 vs sh-NC cells.
Data set [3] can be described thus: Western blot, TMG with or without sh-circCLNS1A#1.

As for La-related protein 1 (LARP1): S672A, the degradation_or_half_life entry in data set [1] is on record as “decreases”. Besides, in data set [2], the “other: dependence of protein stability on circCLNS1A” value is on record as “abolishes”. In data set [3], the “other: dependence of protein level on circCLNS1A” value was “abolishes”.
